The series concerns the target T1, Ms4022 (TetR family regulator) (Mycobacterium smegmatis mc2 155) (UniProt A0QZH0).
T1 sequence: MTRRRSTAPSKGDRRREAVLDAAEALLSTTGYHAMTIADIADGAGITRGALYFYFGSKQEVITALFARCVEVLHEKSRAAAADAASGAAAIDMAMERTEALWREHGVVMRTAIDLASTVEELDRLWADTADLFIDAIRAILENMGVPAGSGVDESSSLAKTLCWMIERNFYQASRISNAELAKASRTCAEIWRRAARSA
As to the kind of experiment: EMSA. The settings on record: EMSA: 50 mM Tris-HCl pH 7.5, 10 mM MgCl2, 50 mM NaCl, 4 C 30 min, 5% native PAGE in 0.5x TBE at room temperature; footprinting: binding as in EMSA, DNase I at ….
Consider “ACGCCGATACTTGACGGAGTGCTTATTTTTTTCGACACTGTGCTTATTGAGATGGCGGGGCATGGAGGCAGCGATGCGAACAATCTTGATCGCCGGAACGAGCGGCGACTTCCGGCGAGCATTCGCCGAGGCGGTTGCGCCTTGGCGTGCACACAGTCGCATCCCCGACCTCGCCGACGCCGCTGTCGGCCCATCCGGGAAGGACCATCCGTGACGAAATCCA (double strand) [Ms4022p s1]”, for which the binding entry was “binds”. On to “GCCTTACGGCACAACGACTTCGGGCTGGCGGCCCGGCGTCGTCGCATCGCGCACGTCCGGTCGGACGCCCCCAGTCGGCCCCTCCGGACTAGGCGTCCACGCCGATACTTGACGGAGTGCTTATTTTTTTCGACACTGTGCTTATTGAGATGGCGGGGCATGGAGGCAGCGATGCGAACAATCTTGATCGCCGGAACGAGCGGCGACTTCCGGCGAGCATTCGCCGAGGCGGTT (double strand) [Ms4022p s2]”, for which the binding entry is listed as “binds”. The entry for “GTCGATCTCCGTCGGGTCAACGGGCGAACTTCCCTGTCACGGCAGTCAGGTTAGCACGAATCCACACAGTGCTGATTTTTATCAGCTTGTTGTCGGCGACGCGGTCACCCGTTTCGGTCGCGAGGTGTCTGATCGGTCGCCATCGGTTATGGCCTTACGGCACAACGACTTCGGGCTGGCGGCCCGGCGTCGTCGCATCGCGCACGTCCGGTCGGACGCCCCCAGTCGGCCCCTCCGGACTAGGCGTCCACGCCGATACTTGACGGAGT (double strand) [Ms4022p s3]” is “binds”.
